From paper doi:10.1101/2023.01.30.526221
pKd: −log10 of the molar value.

Columns and labels:
[1] = biological target: PfRIPR tail (Plasmodium falciparum) (UniProt O97302); experiment: SPR
[2] = biological target: PfRIPR (Plasmodium falciparum) (UniProt O97302); experiment: SPR
[3] = biological target: full-length human basigin (human); experiment: MST
[4] = biological target: basigin ectodomain (human); experiment: MST

Substance | pKd [1] | pKd [2] | pKd [3] | pKd [4]
PfCSS-PfPTRAMP complex | 5.52 | 5.52 | – | –
PfRH5 (natural protein) | – | – | 6.92 | 6.72
